# Measurements from IntAct's records for PubMed 22821967.
# B1: Uncharacterized protein YpfA (Bacillus subtilis), P38491 (parent)
# chain: MIEIGENVLLEYIEENELKKAKSKAVSIENNELLIAYPVDVVTGRTVILHNDMEVTVEFVGKDEVPYRFISRIKGKVKDKLQMICLEMPPREKMKRIQRRQYVRTDAVLDVQIQPGNEEEIRTLSYNISAGGIAVVLADGLSFQSGESLRLIIRLPEEEHTRQIETEAVVRRIFNDPKSEKRKMTLEYSEIAAGDQQALLQYCIRRQLNKRRKARME
# partner: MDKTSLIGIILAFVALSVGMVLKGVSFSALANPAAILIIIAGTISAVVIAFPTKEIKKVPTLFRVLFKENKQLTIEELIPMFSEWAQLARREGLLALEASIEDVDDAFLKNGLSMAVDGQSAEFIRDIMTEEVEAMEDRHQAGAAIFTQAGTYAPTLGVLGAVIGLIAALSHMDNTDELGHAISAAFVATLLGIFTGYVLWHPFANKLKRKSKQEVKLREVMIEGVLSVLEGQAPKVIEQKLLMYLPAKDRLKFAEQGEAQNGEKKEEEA
# Variants of: B1
# Conditions: with mota_bacsu motA
row,Variant,effect of a mutation on the interaction
1,R104D,disrupting interaction
2,R100F,disrupting interaction

# Now from value to variant:
row,effect of a mutation on the interaction,Variant
1,disrupting interaction,N127A
2,disrupting interaction,G132A
